According to US10584350B2, “Structurally modified COI1” (Board of Trustees of Michigan State University, priority 2016, dated 2020):

The molecules below were run on COI1-JAZ9 interaction (assay: Y2H assays on plates for protein-protein interaction). Details: 10 μM COR, yeast.
Format: cell-based, Arabidopsis
Procedure: Yeast EGY48 strain carrying the p8Op:LacZ reporter plasmid was co-transformed with pGilda:COI1 (or COI1 mutants) and pB42AD:JAZ9 (or other JAZs) (Clontech). Colonies were selected on SD minimal plates (BD Biosciences) supplemented with the—uracil (U)/-tryptophan (W)/-histidine (H) amino acid drop out solution (Clontech). Yeast colonies were cultured overnight in liquid SD-UWH medium, harvested, washed twice in sterile water, and the absorbance (OD600) of the cultures was adjusted to 0.2 in liquid SD galactose/raffinose-UWH medium (BD Biosciences).
For Y2H assays on plates, 10-μL culture was spotted onto SD galactose/raffinose-UWH plates with 80 μg/mL X-gal and 10 μM COR (Sigma-Aldrich). Blue color indicated protein-protein interactions after 5-7 days of incubation at 30° C.

| Molecule | COR-dependent COI1-JAZ9 interaction |
| --- | --- |
| F443: COI1 alanine substitution mutant at F443 (protein, UniProt O04197 1-592, looked up, variant F443A) Coronatine-insensitive …: MEDPDIKRCKLSCVATVDDVIEQVMTYITDPKDRDSASLVCRRWFKIDSETREHVTMALCYTATPDRLSRRFPNLRSLKLKGKPRAAMFNLIPENWGGYVTPWVTEISNNLRQLKSVHFRRMIVSDLDLDRLAKARADDLETLKLDKCSGFTTDGLLSIVTHCRKIKTLLMEESSFSEKDGKWLHELAQHNTSLEVLNFYMTEFAKISPKDLETIARNCRSLVSVKVGDFEILELVGFFKAAANLEEFCGGSLNEDIGMPEKYMNLVFPRKLCRLGLSYMGPNEMPILFPFAAQIRKLDLLYALLETEDHCTLIQKCPNLEVLETRNVIGDRGLEVLAQYCKQLKRLRIERGADEQGMEDEEGLVSQRGLIALAQGCQELEYMAVYVSDITNESLESIGTYLKNLCDFRLVLLDREERITDLPLDNGVRSLLIGCKKLRRFAAYLRQGGLTDLGLSYIGQYSPNVRWMLLGYVGESDEGLMEFSRGCPNLQKLEMRGCCFSERAIAAAVTKLPSLRYLWVQGYRASMTGQDLMQMARPYWNIELIPSRRVPEVNQQGEIREMEHPAHILAYYSLAGQRTDCPTTVRVLKEPI | reduced |
| M88: COI1 alanine substitution mutant at M88 (protein, UniProt O04197 1-592, looked up, variant M88A) Coronatine-insensitive …: MEDPDIKRCKLSCVATVDDVIEQVMTYITDPKDRDSASLVCRRWFKIDSETREHVTMALCYTATPDRLSRRFPNLRSLKLKGKPRAAAFNLIPENWGGYVTPWVTEISNNLRQLKSVHFRRMIVSDLDLDRLAKARADDLETLKLDKCSGFTTDGLLSIVTHCRKIKTLLMEESSFSEKDGKWLHELAQHNTSLEVLNFYMTEFAKISPKDLETIARNCRSLVSVKVGDFEILELVGFFKAAANLEEFCGGSLNEDIGMPEKYMNLVFPRKLCRLGLSYMGPNEMPILFPFAAQIRKLDLLYALLETEDHCTLIQKCPNLEVLETRNVIGDRGLEVLAQYCKQLKRLRIERGADEQGMEDEEGLVSQRGLIALAQGCQELEYMAVYVSDITNESLESIGTYLKNLCDFRLVLLDREERITDLPLDNGVRSLLIGCKKLRRFAFYLRQGGLTDLGLSYIGQYSPNVRWMLLGYVGESDEGLMEFSRGCPNLQKLEMRGCCFSERAIAAAVTKLPSLRYLWVQGYRASMTGQDLMQMARPYWNIELIPSRRVPEVNQQGEIREMEHPAHILAYYSLAGQRTDCPTTVRVLKEPI | reduced |
| L469: COI1 alanine substitution mutant at L469 (protein, UniProt O04197 1-592, looked up, variant L469A) Coronatine-insensitive …: MEDPDIKRCKLSCVATVDDVIEQVMTYITDPKDRDSASLVCRRWFKIDSETREHVTMALCYTATPDRLSRRFPNLRSLKLKGKPRAAMFNLIPENWGGYVTPWVTEISNNLRQLKSVHFRRMIVSDLDLDRLAKARADDLETLKLDKCSGFTTDGLLSIVTHCRKIKTLLMEESSFSEKDGKWLHELAQHNTSLEVLNFYMTEFAKISPKDLETIARNCRSLVSVKVGDFEILELVGFFKAAANLEEFCGGSLNEDIGMPEKYMNLVFPRKLCRLGLSYMGPNEMPILFPFAAQIRKLDLLYALLETEDHCTLIQKCPNLEVLETRNVIGDRGLEVLAQYCKQLKRLRIERGADEQGMEDEEGLVSQRGLIALAQGCQELEYMAVYVSDITNESLESIGTYLKNLCDFRLVLLDREERITDLPLDNGVRSLLIGCKKLRRFAFYLRQGGLTDLGLSYIGQYSPNVRWMALGYVGESDEGLMEFSRGCPNLQKLEMRGCCFSERAIAAAVTKLPSLRYLWVQGYRASMTGQDLMQMARPYWNIELIPSRRVPEVNQQGEIREMEHPAHILAYYSLAGQRTDCPTTVRVLKEPI | reduced |
| L470: COI1 alanine substitution mutant at L470 (protein, UniProt O04197 1-592, looked up, variant L470A) Coronatine-insensitive …: MEDPDIKRCKLSCVATVDDVIEQVMTYITDPKDRDSASLVCRRWFKIDSETREHVTMALCYTATPDRLSRRFPNLRSLKLKGKPRAAMFNLIPENWGGYVTPWVTEISNNLRQLKSVHFRRMIVSDLDLDRLAKARADDLETLKLDKCSGFTTDGLLSIVTHCRKIKTLLMEESSFSEKDGKWLHELAQHNTSLEVLNFYMTEFAKISPKDLETIARNCRSLVSVKVGDFEILELVGFFKAAANLEEFCGGSLNEDIGMPEKYMNLVFPRKLCRLGLSYMGPNEMPILFPFAAQIRKLDLLYALLETEDHCTLIQKCPNLEVLETRNVIGDRGLEVLAQYCKQLKRLRIERGADEQGMEDEEGLVSQRGLIALAQGCQELEYMAVYVSDITNESLESIGTYLKNLCDFRLVLLDREERITDLPLDNGVRSLLIGCKKLRRFAFYLRQGGLTDLGLSYIGQYSPNVRWMLAGYVGESDEGLMEFSRGCPNLQKLEMRGCCFSERAIAAAVTKLPSLRYLWVQGYRASMTGQDLMQMARPYWNIELIPSRRVPEVNQQGEIREMEHPAHILAYYSLAGQRTDCPTTVRVLKEPI | reduced |
| Y472: COI1 alanine substitution mutant at Y472 (protein, UniProt O04197 1-592, looked up, variant Y472A) Coronatine-insensitive …: MEDPDIKRCKLSCVATVDDVIEQVMTYITDPKDRDSASLVCRRWFKIDSETREHVTMALCYTATPDRLSRRFPNLRSLKLKGKPRAAMFNLIPENWGGYVTPWVTEISNNLRQLKSVHFRRMIVSDLDLDRLAKARADDLETLKLDKCSGFTTDGLLSIVTHCRKIKTLLMEESSFSEKDGKWLHELAQHNTSLEVLNFYMTEFAKISPKDLETIARNCRSLVSVKVGDFEILELVGFFKAAANLEEFCGGSLNEDIGMPEKYMNLVFPRKLCRLGLSYMGPNEMPILFPFAAQIRKLDLLYALLETEDHCTLIQKCPNLEVLETRNVIGDRGLEVLAQYCKQLKRLRIERGADEQGMEDEEGLVSQRGLIALAQGCQELEYMAVYVSDITNESLESIGTYLKNLCDFRLVLLDREERITDLPLDNGVRSLLIGCKKLRRFAFYLRQGGLTDLGLSYIGQYSPNVRWMLLGAVGESDEGLMEFSRGCPNLQKLEMRGCCFSERAIAAAVTKLPSLRYLWVQGYRASMTGQDLMQMARPYWNIELIPSRRVPEVNQQGEIREMEHPAHILAYYSLAGQRTDCPTTVRVLKEPI | reduced |
| Q491: COI1 alanine substitution mutant at Q491 (protein, UniProt O04197 1-592, looked up, variant Q491A) Coronatine-insensitive …: MEDPDIKRCKLSCVATVDDVIEQVMTYITDPKDRDSASLVCRRWFKIDSETREHVTMALCYTATPDRLSRRFPNLRSLKLKGKPRAAMFNLIPENWGGYVTPWVTEISNNLRQLKSVHFRRMIVSDLDLDRLAKARADDLETLKLDKCSGFTTDGLLSIVTHCRKIKTLLMEESSFSEKDGKWLHELAQHNTSLEVLNFYMTEFAKISPKDLETIARNCRSLVSVKVGDFEILELVGFFKAAANLEEFCGGSLNEDIGMPEKYMNLVFPRKLCRLGLSYMGPNEMPILFPFAAQIRKLDLLYALLETEDHCTLIQKCPNLEVLETRNVIGDRGLEVLAQYCKQLKRLRIERGADEQGMEDEEGLVSQRGLIALAQGCQELEYMAVYVSDITNESLESIGTYLKNLCDFRLVLLDREERITDLPLDNGVRSLLIGCKKLRRFAFYLRQGGLTDLGLSYIGQYSPNVRWMLLGYVGESDEGLMEFSRGCPNLAKLEMRGCCFSERAIAAAVTKLPSLRYLWVQGYRASMTGQDLMQMARPYWNIELIPSRRVPEVNQQGEIREMEHPAHILAYYSLAGQRTDCPTTVRVLKEPI | reduced |
| K492: COI1 alanine substitution mutant at K492 (protein, UniProt O04197 1-592, looked up, variant K492A) Coronatine-insensitive …: MEDPDIKRCKLSCVATVDDVIEQVMTYITDPKDRDSASLVCRRWFKIDSETREHVTMALCYTATPDRLSRRFPNLRSLKLKGKPRAAMFNLIPENWGGYVTPWVTEISNNLRQLKSVHFRRMIVSDLDLDRLAKARADDLETLKLDKCSGFTTDGLLSIVTHCRKIKTLLMEESSFSEKDGKWLHELAQHNTSLEVLNFYMTEFAKISPKDLETIARNCRSLVSVKVGDFEILELVGFFKAAANLEEFCGGSLNEDIGMPEKYMNLVFPRKLCRLGLSYMGPNEMPILFPFAAQIRKLDLLYALLETEDHCTLIQKCPNLEVLETRNVIGDRGLEVLAQYCKQLKRLRIERGADEQGMEDEEGLVSQRGLIALAQGCQELEYMAVYVSDITNESLESIGTYLKNLCDFRLVLLDREERITDLPLDNGVRSLLIGCKKLRRFAFYLRQGGLTDLGLSYIGQYSPNVRWMLLGYVGESDEGLMEFSRGCPNLQALEMRGCCFSERAIAAAVTKLPSLRYLWVQGYRASMTGQDLMQMARPYWNIELIPSRRVPEVNQQGEIREMEHPAHILAYYSLAGQRTDCPTTVRVLKEPI | reduced |
| R516: COI1 alanine substitution mutant at R516 (protein, UniProt O04197 1-592, looked up, variant R516A) Coronatine-insensitive …: MEDPDIKRCKLSCVATVDDVIEQVMTYITDPKDRDSASLVCRRWFKIDSETREHVTMALCYTATPDRLSRRFPNLRSLKLKGKPRAAMFNLIPENWGGYVTPWVTEISNNLRQLKSVHFRRMIVSDLDLDRLAKARADDLETLKLDKCSGFTTDGLLSIVTHCRKIKTLLMEESSFSEKDGKWLHELAQHNTSLEVLNFYMTEFAKISPKDLETIARNCRSLVSVKVGDFEILELVGFFKAAANLEEFCGGSLNEDIGMPEKYMNLVFPRKLCRLGLSYMGPNEMPILFPFAAQIRKLDLLYALLETEDHCTLIQKCPNLEVLETRNVIGDRGLEVLAQYCKQLKRLRIERGADEQGMEDEEGLVSQRGLIALAQGCQELEYMAVYVSDITNESLESIGTYLKNLCDFRLVLLDREERITDLPLDNGVRSLLIGCKKLRRFAFYLRQGGLTDLGLSYIGQYSPNVRWMLLGYVGESDEGLMEFSRGCPNLQKLEMRGCCFSERAIAAAVTKLPSLAYLWVQGYRASMTGQDLMQMARPYWNIELIPSRRVPEVNQQGEIREMEHPAHILAYYSLAGQRTDCPTTVRVLKEPI | reduced |
